Reference: PMC6555819, “Comprehensive study of nuclear receptor DNA binding provides a revised framework for understanding receptor specificity”

B1: NRC3_wobSeed69_DR2_T16G_o1 (dsDNA)
DNA 1: GCAGTCAAAGTTCACGAGGTAACGTAAGATTCAGCTGCGATTGACAGCGTAGAATGAAGG
DNA 2: CCTTCATTCTACGCTGTCAATCGCAGCTGAATCTTACGTTACCTCGTGAACTTTGACTGC
B2: NRC3_wobSeed49_DR2_A6G_o1 (dsDNA)
DNA 1: GCCAAGCTAGGTCAAGAGGTCAAAGTCCGCTTCCCGGCGATTGACAGCGTAGAATGAAGG
DNA 2: CCTTCATTCTACGCTGTCAATCGCCGGGAAGCGGACTTTGACCTCTTGACCTAGCTTGGC
B3: NRC3_wobSeed61_DR2_C7T_o1 (dsDNA)
DNA 1: GCCGTCTAAGGTCAGCAGGTCAGTGAAAGCGACGTGGCGATTGACAGCGTAGAATGAAGG
DNA 2: CCTTCATTCTACGCTGTCAATCGCCACGTCGCTTTCACTGACCTGCTGACCTTAGACGGC
B4: NRC3_wobSeed61_DR2_G23C_o1 (dsDNA)
DNA 1: GCCGTCCAAGGTCAGCAGGTCACTGAAAGCGACGTGGCGATTGACAGCGTAGAATGAAGG
DNA 2: CCTTCATTCTACGCTGTCAATCGCCACGTCGCTTTCAGTGACCTGCTGACCTTGGACGGC
B5: NRC3_wobSeed61_DR2_G15A_o1 (dsDNA)
DNA 1: GCCGTCCAAGGTCAACAGGTCAGTGAAAGCGACGTGGCGATTGACAGCGTAGAATGAAGG
DNA 2: CCTTCATTCTACGCTGTCAATCGCCACGTCGCTTTCACTGACCTGTTGACCTTGGACGGC
B6: NRC3_wobSeed133_DR5_T16C_o1 (dsDNA)
DNA 1: GCCGTCCAAGGTCAACGCTAGGTCAGTGAAAGCATTGCGATTGACAGCGTAGAATGAAGG
DNA 2: CCTTCATTCTACGCTGTCAATCGCAATGCTTTCACTGACCTAGCGTTGACCTTGGACGGC
B7: NRC3_wobSeed71_DR2_G12T_o1 (dsDNA)
DNA 1: GCCGAACGAGGTCATGAGTTGATAGCAAATGCCGATGCGATTGACAGCGTAGAATGAAGG
DNA 2: CCTTCATTCTACGCTGTCAATCGCATCGGCATTTGCTATCAACTCATGACCTCGTTCGGC
B8: NRC3_wobSeed110_DR4_C26T_o1 (dsDNA)
DNA 1: GCTCTGCTAGGTCAACGATGGTCAGTTAATCTGCTAGCGATTGACAGCGTAGAATGAAGG
DNA 2: CCTTCATTCTACGCTGTCAATCGCTAGCAGATTAACTGACCATCGTTGACCTAGCAGAGC
B9: NRC3_wobSeed13_DR0_C7T_o1 (dsDNA)
DNA 1: GCCGTCTAAGGTCAAGGTCAGTGAAAGAGACTCGAAGCGATTGACAGCGTAGAATGAAGG
DNA 2: CCTTCATTCTACGCTGTCAATCGCTTCGAGTCTCTTTCACTGACCTTGACCTTAGACGGC
B10: NRC3_wobSeed97_DR4_A26C_o1 (dsDNA)
DNA 1: GCCAAACTAGGTCACGAAAGGTCAACGTCGAATGACGCGATTGACAGCGTAGAATGAAGG
DNA 2: CCTTCATTCTACGCTGTCAATCGCGTCATTCGACGTTGACCTTTCGTGACCTAGTTTGGC
B11: NRC3_wobSeed76_DR3_G20T_o1 (dsDNA)
DNA 1: GCCCTACTGGGCCAAAAAGTTCATTGATGCCGATAAGCGATTGACAGCGTAGAATGAAGG
DNA 2: CCTTCATTCTACGCTGTCAATCGCTTATCGGCATCAATGAACTTTTTGGCCCAGTAGGGC
B12: NRC3_wobSeed17_DR0_T21G_o1 (dsDNA)
DNA 1: GCATATGTAGGTTAGGGTCAGTCAGAAAGTAGGGAAGCGATTGACAGCGTAGAATGAAGG
DNA 2: CCTTCATTCTACGCTGTCAATCGCTTCCCTACTTTCTGACTGACCCTAACCTACATATGC
B13: NRC3_wobSeed85_DR3_C6G_o1 (dsDNA)
DNA 1: GCCGTGCAAGGTCAGAGAGGTCAGTGAATGCCGAGTGCGATTGACAGCGTAGAATGAAGG
DNA 2: CCTTCATTCTACGCTGTCAATCGCACTCGGCATTCACTGACCTCTCTGACCTTGCACGGC
B14: NRC3_random_hg19_149_o1 (dsDNA)
DNA 1: GCATGAAACCATGCTCGAGTGTGTGTGTGTGTGTATGCGATTGACAGCGTAGAATGAAGG
DNA 2: CCTTCATTCTACGCTGTCAATCGCATACACACACACACACACTCGAGCATGGTTTCATGC
B15: NRC3_wobSeed117_DR4_A29T_o1 (dsDNA)
DNA 1: GCCGTCAAAGTTCAACTAAGGTAACGTATAGCACGCGCGATTGACAGCGTAGAATGAAGG
DNA 2: CCTTCATTCTACGCTGTCAATCGCGCGTGCTATACGTTACCTTAGTTGAACTTTGACGGC
B16: NRC3_wobSeed117_DR4_G21T_o1 (dsDNA)
DNA 1: GCCGTCAAAGTTCAACTAAGTTAACGTAAAGCACGCGCGATTGACAGCGTAGAATGAAGG
DNA 2: CCTTCATTCTACGCTGTCAATCGCGCGTGCTTTACGTTAACTTAGTTGAACTTTGACGGC
B17: NRC3_random_hg19_315_o1 (dsDNA)
DNA 1: GCAGTCACACCTAACTGCAGGGAAGTCTATGAAATGGCGATTGACAGCGTAGAATGAAGG
DNA 2: CCTTCATTCTACGCTGTCAATCGCCATTTCATAGACTTCCCTGCAGTTAGGTGTGACTGC
B18: NRC3_random_hg19_241_o1 (dsDNA)
DNA 1: GCTGTAACGTGGGCTTCACTGTCGGGTCCAGCCCACGCGATTGACAGCGTAGAATGAAGG
DNA 2: CCTTCATTCTACGCTGTCAATCGCGTGGGCTGGACCCGACAGTGAAGCCCACGTTACAGC
B19: NRC3_wobSeed73_DR3_A25C_o1 (dsDNA)
DNA 1: GCCAAACTAGGTCACAGAGGTCAACGTCCGTGCGTAGCGATTGACAGCGTAGAATGAAGG
DNA 2: CCTTCATTCTACGCTGTCAATCGCTACGCACGGACGTTGACCTCTGTGACCTAGTTTGGC
B20: NRC3_wobSeed136_DR5_G11T_o1 (dsDNA)
DNA 1: GCTAGCCTAGTTCATTCAGGGGCCAGTATAGAAAGCGCGATTGACAGCGTAGAATGAAGG
DNA 2: CCTTCATTCTACGCTGTCAATCGCGCTTTCTATACTGGCCCCTGAATGAACTAGGCTAGC
B21: NRC3_wobSeed136_DR5_T8G_o1 (dsDNA)
DNA 1: GCTAGCCGAGGTCATTCAGGGGCCAGTATAGAAAGCGCGATTGACAGCGTAGAATGAAGG
DNA 2: CCTTCATTCTACGCTGTCAATCGCGCTTTCTATACTGGCCCCTGAATGACCTCGGCTAGC
B22: NRC3_random_hg19_374_o1 (dsDNA)
DNA 1: GCTAGACTGGCGACTGCTTGATTCATGGCTGAGTCTGCGATTGACAGCGTAGAATGAAGG
DNA 2: CCTTCATTCTACGCTGTCAATCGCAGACTCAGCCATGAATCAAGCAGTCGCCAGTCTAGC
B23: NRC3_wobSeed39_DR1_G4C_o1 (dsDNA)
DNA 1: GCCCAACTAGGTCAAAGGACAGTGAAAGGCGACGTAGCGATTGACAGCGTAGAATGAAGG
DNA 2: CCTTCATTCTACGCTGTCAATCGCTACGTCGCCTTTCACTGTCCTTTGACCTAGTTGGGC
B24: NRC3_wobSeed109_DR4_C6T_o1 (dsDNA)
DNA 1: GCCGTTCAAGGTCATAGGAGGTCAGTGAAGACAGATGCGATTGACAGCGTAGAATGAAGG
DNA 2: CCTTCATTCTACGCTGTCAATCGCATCTGTCTTCACTGACCTCCTATGACCTTGAACGGC
B25: NRC3_wobSeed99_DR4_G16T_o1 (dsDNA)
DNA 1: GCTCTCGGAGGACACTAAAGGTCAGAGCTCGACATCGCGATTGACAGCGTAGAATGAAGG
DNA 2: CCTTCATTCTACGCTGTCAATCGCGATGTCGAGCTCTGACCTTTAGTGTCCTCCGAGAGC
B26: NRC3_wobSeed66_DR2_T16G_o1 (dsDNA)
DNA 1: GCAATACAGGGTCACGAGGCCAGAGTAGGTACGAATGCGATTGACAGCGTAGAATGAAGG
DNA 2: CCTTCATTCTACGCTGTCAATCGCATTCGTACCTACTCTGGCCTCGTGACCCTGTATTGC
B27: NRC3_wobSeed44_DR1_G17T_o1 (dsDNA)
DNA 1: GCTGAATGAGGTTAAATATCAGGGAACGTGGCGTCGGCGATTGACAGCGTAGAATGAAGG
DNA 2: CCTTCATTCTACGCTGTCAATCGCCGACGCCACGTTCCCTGATATTTAACCTCATTCAGC
B28: NRC3_wobSeed14_DR0_T23G_o1 (dsDNA)
DNA 1: GCCCTGCTAGGTCATGGTCAGCGAATCTACAGTATGGCGATTGACAGCGTAGAATGAAGG
DNA 2: CCTTCATTCTACGCTGTCAATCGCCATACTGTAGATTCGCTGACCATGACCTAGCAGGGC
B29: NRC3_wobSeed134_DR5_T8A_o1 (dsDNA)
DNA 1: GCGCTGCAAGGTCAACTGATGGTCAGCTAAAGCTCGGCGATTGACAGCGTAGAATGAAGG
DNA 2: CCTTCATTCTACGCTGTCAATCGCCGAGCTTTAGCTGACCATCAGTTGACCTTGCAGCGC

Columns and labels:
Experiment in all cases: no ligand; PBM; 270 nM : 90 nM RXRa; PBS pH 7.4, 2% milk, 0.02% Triton X-100, 1 mM DTT, BSA, 0.4 mg/ml salmon testes DNA
RARb:RXRa = RARb:RXRa (Homo sapiens, UniProt P10826;P19793 full;full); details: tags: His kept;His cleaved; copies: 1;1; label: surface-attached array probe
In short: (§1)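 Binding buffer was PBS pH 7.4 with 2% milk, 0.02% Triton X-100, 1 mM DTT, 0.2 mg/mL BSA and 0.4 mg/ml salmon testes DNA. In it, ligand-free nuclear receptor dimers were incubated 1 h on custom Agilent 4×180K protein-binding microarrays carrying double-stranded probes. Antibodies against each partner (one per run) detected binding, and z-scores were calculated against random background probes after regression normalization of scanned fluorescence.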

PPARa:RXRa = PPARa:RXRa (Homo sapiens, UniProt Q07869;P19793 full;full); details: tags: GST kept;His cleaved; copies: 1;1; label: surface-attached array probe
In short: as §1

FXR:RXRa = FXR:RXRa (Homo sapiens, UniProt Q96RI1;P19793 full;full); details: tags: His kept;His cleaved; copies: 1;1; label: surface-attached array probe
In short: as §1

RARg:RXRa = RARg:RXRa (Homo sapiens, UniProt P13631;P19793 full;full); details: tags: His kept;His cleaved; copies: 1;1; label: surface-attached array probe
In short: as §1

RARg:RXRa, sequence (P13631 whole entry, chain 1 of 2): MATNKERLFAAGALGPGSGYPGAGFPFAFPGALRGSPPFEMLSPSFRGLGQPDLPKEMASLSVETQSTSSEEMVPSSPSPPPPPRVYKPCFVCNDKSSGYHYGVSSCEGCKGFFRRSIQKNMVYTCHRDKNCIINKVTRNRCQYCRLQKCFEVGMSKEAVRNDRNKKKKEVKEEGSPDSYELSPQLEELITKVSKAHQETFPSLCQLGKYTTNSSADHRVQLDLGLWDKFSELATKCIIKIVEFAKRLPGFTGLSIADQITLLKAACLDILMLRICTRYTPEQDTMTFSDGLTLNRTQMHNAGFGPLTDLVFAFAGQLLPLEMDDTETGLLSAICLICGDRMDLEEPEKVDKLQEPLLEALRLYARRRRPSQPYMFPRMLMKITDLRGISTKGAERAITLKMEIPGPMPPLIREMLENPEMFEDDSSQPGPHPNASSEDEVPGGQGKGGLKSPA
RARg:RXRa, sequence (P19793 whole entry, chain 2 of 2): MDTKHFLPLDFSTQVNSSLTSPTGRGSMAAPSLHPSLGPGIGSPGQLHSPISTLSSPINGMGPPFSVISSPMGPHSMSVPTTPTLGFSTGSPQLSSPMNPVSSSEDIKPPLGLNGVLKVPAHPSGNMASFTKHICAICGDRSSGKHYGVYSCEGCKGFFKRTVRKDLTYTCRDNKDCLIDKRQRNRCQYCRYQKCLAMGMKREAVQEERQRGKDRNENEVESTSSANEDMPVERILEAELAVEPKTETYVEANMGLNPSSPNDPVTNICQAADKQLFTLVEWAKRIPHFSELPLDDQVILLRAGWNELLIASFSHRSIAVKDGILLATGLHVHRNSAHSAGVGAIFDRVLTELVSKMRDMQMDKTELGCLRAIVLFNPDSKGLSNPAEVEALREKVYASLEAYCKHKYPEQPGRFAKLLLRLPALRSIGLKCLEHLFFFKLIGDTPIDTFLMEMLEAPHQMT
FXR:RXRa, sequence (Q96RI1 whole entry, chain 1 of 2): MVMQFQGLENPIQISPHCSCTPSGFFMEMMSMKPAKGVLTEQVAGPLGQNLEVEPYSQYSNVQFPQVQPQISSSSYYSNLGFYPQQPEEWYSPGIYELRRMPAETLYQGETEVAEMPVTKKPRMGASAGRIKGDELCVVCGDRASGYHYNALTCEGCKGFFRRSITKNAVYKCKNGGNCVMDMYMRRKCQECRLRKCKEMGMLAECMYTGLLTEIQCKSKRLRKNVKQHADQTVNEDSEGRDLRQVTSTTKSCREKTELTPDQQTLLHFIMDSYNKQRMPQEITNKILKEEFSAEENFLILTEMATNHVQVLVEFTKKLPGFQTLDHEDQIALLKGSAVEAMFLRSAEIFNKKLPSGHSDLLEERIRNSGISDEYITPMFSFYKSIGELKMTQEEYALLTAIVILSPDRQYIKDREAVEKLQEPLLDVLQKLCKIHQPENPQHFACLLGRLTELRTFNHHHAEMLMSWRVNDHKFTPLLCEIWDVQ
FXR:RXRa, sequence (P19793 whole entry, chain 2 of 2): as the sequence (P19793 whole entry, chain 2 of 2) above
RARb:RXRa, sequence (P10826 whole entry, chain 1 of 2): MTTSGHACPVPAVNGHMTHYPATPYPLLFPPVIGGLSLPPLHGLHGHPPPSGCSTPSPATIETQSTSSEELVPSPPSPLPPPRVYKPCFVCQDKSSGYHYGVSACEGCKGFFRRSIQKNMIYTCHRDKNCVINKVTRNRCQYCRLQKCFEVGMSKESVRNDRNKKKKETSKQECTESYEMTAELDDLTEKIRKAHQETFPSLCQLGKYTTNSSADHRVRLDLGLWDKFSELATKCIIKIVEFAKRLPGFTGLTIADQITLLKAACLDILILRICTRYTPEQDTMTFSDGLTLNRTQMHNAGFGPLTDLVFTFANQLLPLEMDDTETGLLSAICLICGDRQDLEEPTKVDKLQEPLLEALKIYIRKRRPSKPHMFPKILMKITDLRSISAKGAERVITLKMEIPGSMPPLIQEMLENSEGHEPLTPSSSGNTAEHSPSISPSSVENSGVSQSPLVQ
RARb:RXRa, sequence (P19793 whole entry, chain 2 of 2): as the sequence (P19793 whole entry, chain 2 of 2) above
PPARa:RXRa, sequence (Q07869 whole entry, chain 1 of 2): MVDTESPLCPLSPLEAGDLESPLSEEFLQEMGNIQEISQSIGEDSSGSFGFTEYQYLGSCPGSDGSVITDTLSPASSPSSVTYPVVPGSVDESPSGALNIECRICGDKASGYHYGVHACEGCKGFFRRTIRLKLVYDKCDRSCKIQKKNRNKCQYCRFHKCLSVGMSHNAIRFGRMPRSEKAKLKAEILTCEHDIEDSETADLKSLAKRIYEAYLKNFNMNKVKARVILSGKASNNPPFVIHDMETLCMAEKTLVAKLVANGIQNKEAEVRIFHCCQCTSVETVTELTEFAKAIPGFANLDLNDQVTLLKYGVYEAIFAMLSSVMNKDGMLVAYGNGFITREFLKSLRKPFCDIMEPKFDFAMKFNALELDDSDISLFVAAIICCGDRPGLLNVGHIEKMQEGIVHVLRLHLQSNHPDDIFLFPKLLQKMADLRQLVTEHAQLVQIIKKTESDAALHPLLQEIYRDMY
PPARa:RXRa, sequence (P19793 whole entry, chain 2 of 2): as the sequence (P19793 whole entry, chain 2 of 2) above

Row | Binder | binding signal (RARb:RXRa) | binding signal (FXR:RXRa) | further results
1 | B1 | 5.54 PBM z-score against 500 random probes |  | 
2 | B2 | 5.77 PBM z-score against 500 random probes |  | 
3 | B3 | 5.58 PBM z-score against 500 random probes |  | 
4 | B4 | 5.58 PBM z-score against 500 random probes |  | 
5 | B5 | 5.56 PBM z-score against 500 random probes |  | 
6 | B6 | 5.63 PBM z-score against 500 random probes |  | 
7 | B7 |  | 7.78 PBM z-score against 500 random probes | binding signal (PPARa:RXRa): 6.51 PBM z-score against 500 random probes
8 | B8 |  | 3.07 PBM z-score against 500 random probes | 
9 | B9 | 6 PBM z-score against 500 random probes |  | 
10 | B10 | 6.08 PBM z-score against 500 random probes |  | 
11 | B11 |  | 0.49 PBM z-score against 500 random probes | 
12 | B12 |  | 3 PBM z-score against 500 random probes | 
13 | B13 | 5.58 PBM z-score against 500 random probes |  | 
14 | B14 |  | -0.44 PBM z-score against 500 random probes | binding signal (RARg:RXRa): -0.37 PBM z-score against 500 random probes
15 | B15 | 5.55 PBM z-score against 500 random probes |  | 
16 | B16 | 5.53 PBM z-score against 500 random probes |  | 
17 | B17 |  | -0.43 PBM z-score against 500 random probes | binding signal (RARg:RXRa): -0.2 PBM z-score against 500 random probes
18 | B18 |  | -0.46 PBM z-score against 500 random probes | binding signal (PPARa:RXRa): -0.77 PBM z-score against 500 random probes
19 | B19 | 5.59 PBM z-score against 500 random probes |  | 
20 | B20 |  | 0.31 PBM z-score against 500 random probes | binding signal (PPARa:RXRa): 0.45 PBM z-score against 500 random probes
21 | B21 |  | 7.79 PBM z-score against 500 random probes | binding signal (RARg:RXRa): 7.94 PBM z-score against 500 random probes
22 | B22 |  | -0.55 PBM z-score against 500 random probes | binding signal (RARg:RXRa): -0.21 PBM z-score against 500 random probes
23 | B23 |  | 3.67 PBM z-score against 500 random probes | binding signal (RARg:RXRa): 3.99 PBM z-score against 500 random probes
24 | B24 | 5.82 PBM z-score against 500 random probes |  | 
25 | B25 |  | 3.03 PBM z-score against 500 random probes | 
26 | B26 |  | 7.9 PBM z-score against 500 random probes | binding signal (PPARa:RXRa): 6.53 PBM z-score against 500 random probes
27 | B27 |  | 3.09 PBM z-score against 500 random probes | 
28 | B28 |  | 4.17 PBM z-score against 500 random probes | binding signal (PPARa:RXRa): 3.44 PBM z-score against 500 random probes
29 | B29 | 5.55 PBM z-score against 500 random probes |  | 
